# Test results as given in article PMC8205142.
# Biological target: recombinant venestatin (Strongyloides venezuelensis)
# Assay: ELISA; r-venestatin (4 ug/mL) coated on wells; RAGE or TLR4 (0-4 ug/mL) in buffer A (50 mM Tris-HCl pH 7, 10 mM NaCl, 5 mM CaCl2), ambient temperature, 1 h; detected with anti-RAGE or anti-TLR4 antibodies; KD by Scatchard plot
substance,measurement,value
recombinant human RAGE (receptor for advanced glycation end products) (from UniProt Q15109 23-342),Kd,43.6 nM
